Laboratory results as given in publication PMC11169542, “A probe for NIR-II imaging and multimodal analysis of early Alzheimer’s disease by targeting CTGF” (Nature Communications, 2024).
Ends that are not written are not given here.

Legend:
[1] = Biosafety: blood tests and organ pathological analysis (H&E staining); type: in vivo; conditions: C57BL/6J mice, 20 mg/kg DGC, vs untreated normal mice
Description: In order to clarify the NIR-II signal in AD brains when in vivo imaging is arisen from the DGC probe that bound to CTGF, we selected 3-month-old APP/PS1 mice representing early-stage AD and the age-matched WT mice as control to performed ex vivo multimodal analysis of the brain sections. […] To exclude the influence of vascular retention, we emptied the cerebral vessels by cardiac perfusion and performed ex vivo imaging of the brains. […] For brain sections made from AD mice after tail vein injection of DGC, the red fluorescence observation and LA-ICP-TOF-MS of DGC, as well as a POD-like catalysis test were performed. […] In Fig. 6c, the colocalization of DGC (red fluorescence) and CTGF (green fluorescence) on the ex vivo brain sections confirmed the specificity of DGC targeting CTGF in vivo. To further identify the cellular target of DGC in the brain of APP/PS1 mice, we carried out immunofluorescence staining on the ex vivo brain sections after tail vein injection of DGC where cell-specific fluorescent antibodies for microglia (Iba 1), neurons (NeuN), vascular endothelial cell (CD31) and reactive astrocytes (GFAP) were applied. […] The biosafety of DGC in C57BL/6J mice under the NIR-II imaging condition was evaluated by blood tests (blood cells and biochemical analysis) and organ pathological analysis (H&E staining).

[2] = Dynamic light scattering, hydrated particle size; type: physicochemical; conditions: dynamic light scattering (Zetasizer Nano), aqueous
Description: The fluorescence spectrophotometer (Shimadzu RF-5301, Kyoto, Japan) and NIR spectrograph FLS1000 was used to acquire the fluorescence and NIR spectra of the as-synthesized DGC. The mean hydrated particle size and size distribution of DGC were further documented by a phase analysis light-scattering technique (Zetasizer Nano, Malvern). The synthetic DGC was also observed by using a High-Resolution Transmission Electron Microscope (HRTEM, FEI Talos F200X-G2) at the accelerated voltage of 200 kV.

CTGF = biological target: T1, CTGF (Homo sapiens, UniProt P29279); assay: ICP-MS of Au content in DGC-labelled human brain sections; set-up: The brain tissue samples of autopsy-confirmed AD patients were obtained from the Chinese Brain Bank Center; from tissue; host or cells: postmortem human brain sections (hippocampus, cortex) of AD patients and healthy controls; ICP-MS (Au content): unit not given here
T1 sequence (P29279 27-349): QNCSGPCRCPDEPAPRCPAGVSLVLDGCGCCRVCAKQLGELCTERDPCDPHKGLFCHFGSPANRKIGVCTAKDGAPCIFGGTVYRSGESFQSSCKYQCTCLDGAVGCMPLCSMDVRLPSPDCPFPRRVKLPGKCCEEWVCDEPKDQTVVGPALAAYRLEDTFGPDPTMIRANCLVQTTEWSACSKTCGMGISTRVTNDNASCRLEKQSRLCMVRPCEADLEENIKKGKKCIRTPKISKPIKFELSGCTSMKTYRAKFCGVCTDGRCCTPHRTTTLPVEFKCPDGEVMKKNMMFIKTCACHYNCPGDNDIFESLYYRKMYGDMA
Protocol: The brain tissue samples of autopsy-confirmed AD patients were obtained from the Chinese Brain Bank Center (CBBC) and Human Brain Bank, Central South University Xiangya School of Medicine. First, the brain sections were air-dried for 15 min at room temperature, followed by immersion in water. 5% H2O2 was applied for 15 min at room temperature. The sections were washed three times with PBS for 5 min each time. Then, tissue repair was performed using trypsin at a temperature of 37 °C for 5 min and washed three times with PBS. We chose 10% sheep serum to block for a duration of 20 min at 37°. Primary antibodies (CTGF antibody and Aβ antibody) were added to the sections overnight at 4 °C. FITC-labeled Goat Anti-Rabbit IgG (H + L) (1: dilution 1:200, Bioss, Cat#bs-0370R-FITC) was applied and incubated at 37 °C for 20 min in darkness. Subsequent washing steps involved rinsing the sections three times with PBS, each time lasting for 5 min while avoiding exposure to light. DAPI staining was performed, taking care to store the samples away from light during the 5-min procedure. Then observed by the CLSM system. Then, we chose the optimal incubation concentration of DGC (200 μM) was used to determine the conditions using DAB Horseradish Peroxidase Color Development Kit. After the brain sections were co-stained by DGC (200 μM) at 4 °C overnight, a DAB chromogenic agent was added to the brain tissue sections to explore whether DGC can catalyze DAB solutions to produce insoluble brown precipitate to attach the brain tissue sections with an optical microscope. Finally, the brain tissue sections were digested with aqua regia to measure the Au content by the ICP-MS system.

DGC: CTGF-targeting peptide-coated gold nanocluster: one Au26 gold nanocluster coated by eight DAG cyclic peptides, NIR-II and red fluorescence (CDAGRKQKC; also: cyclic peptide, ring not given here, eight peptides on one Au26 nanocluster via Cys Au-S bonds)
abnormalities in blood parameters and major organs [1]: did not induce any abnormalities in blood parameters and major organs
average hydrated size [2]: ~ 2.85 nm
ICP-MS (Au content) (CTGF; AD 1, Cortex section stained with DGC): 16.9799
ICP-MS (Au content) (CTGF; AD 1, Hippocampus section stained with DGC): 24.3713
ICP-MS (Au content) (CTGF; AD 2, Cortex section stained with DGC): 28.448
ICP-MS (Au content) (CTGF; AD 2, Hippocampus section stained with DGC): 30.5308
Au Content (DGC) per cm^2 by ICP-MS (CTGF; Case 1 (healthy control, Thal 0) brain section, section 1): 0.1533
Au Content (DGC) per cm^2 by ICP-MS (CTGF; Case 1 (healthy control, Thal 0) brain section, section 2): 0.3279
Au Content (DGC) per cm^2 by ICP-MS (CTGF; Case 1 (healthy control, Thal 0) brain section, section 3): 0.1558
Au Content (DGC) per cm^2 by ICP-MS (CTGF; Case 2 (healthy control, Thal 0) brain section, section 1): 0.09047
Au Content (DGC) per cm^2 by ICP-MS (CTGF; Case 2 (healthy control, Thal 0) brain section, section 2): 0.265
Au Content (DGC) per cm^2 by ICP-MS (CTGF; Case 2 (healthy control, Thal 0) brain section, section 3): 0.06474
Au Content (DGC) per cm^2 by ICP-MS (CTGF; Case 3 (AD, Thal 1) brain section, section 1): 0.6218
Au Content (DGC) per cm^2 by ICP-MS (CTGF; Case 3 (AD, Thal 1) brain section, section 2): 0.4537
Au Content (DGC) per cm^2 by ICP-MS (CTGF; Case 3 (AD, Thal 1) brain section, section 3): 0.399
Au Content (DGC) per cm^2 by ICP-MS (CTGF; Case 4 (AD, Thal 1) brain section, section 1): 0.5318
Au Content (DGC) per cm^2 by ICP-MS (CTGF; Case 4 (AD, Thal 1) brain section, section 2): 0.7576
Au Content (DGC) per cm^2 by ICP-MS (CTGF; Case 4 (AD, Thal 1) brain section, section 3): 0.7155
ICP-MS (Au content) (CTGF; HC 1, Cortex section stained with DGC): 3.7846
ICP-MS (Au content) (CTGF; HC 1, Hippocampus section stained with DGC): 2.83
ICP-MS (Au content) (CTGF; HC 2, Cortex section stained with DGC): 3.7846
ICP-MS (Au content) (CTGF; HC 2, Hippocampus section stained with DGC): 11.6586
